Read-outs that look alike come from different tables or passages of the source. Blank lines part the entries; values can stand above or below the molecule they belong to.
How the values were obtained:
[1] = target: GST-STAT3 (16 kDa monovalent antigen, Creative BioMart #STAT3-1476H) (UniProt P40763)
[2] = target: GST-STAT3 (16 kDa monovalent antigen, Creative BioMart #STAT3-1476H) (UniProt P40763); remark: listed apart in the source
[3] = target: GST-STAT3 (16 kDa monovalent antigen, Creative BioMart #STAT3-1476H) (UniProt P40763); remark: listed apart in the source
[4] = target: endogenous STAT3 in human cancer cell lysates (MDA-MB-231, PANC-1, DU145) (human, UniProt P40763 2-770)
Sequence of endogenous STAT3 in human cancer cell lysates (MDA-MB-231, PANC-1, DU145) (P40763 2-770 limits assumed): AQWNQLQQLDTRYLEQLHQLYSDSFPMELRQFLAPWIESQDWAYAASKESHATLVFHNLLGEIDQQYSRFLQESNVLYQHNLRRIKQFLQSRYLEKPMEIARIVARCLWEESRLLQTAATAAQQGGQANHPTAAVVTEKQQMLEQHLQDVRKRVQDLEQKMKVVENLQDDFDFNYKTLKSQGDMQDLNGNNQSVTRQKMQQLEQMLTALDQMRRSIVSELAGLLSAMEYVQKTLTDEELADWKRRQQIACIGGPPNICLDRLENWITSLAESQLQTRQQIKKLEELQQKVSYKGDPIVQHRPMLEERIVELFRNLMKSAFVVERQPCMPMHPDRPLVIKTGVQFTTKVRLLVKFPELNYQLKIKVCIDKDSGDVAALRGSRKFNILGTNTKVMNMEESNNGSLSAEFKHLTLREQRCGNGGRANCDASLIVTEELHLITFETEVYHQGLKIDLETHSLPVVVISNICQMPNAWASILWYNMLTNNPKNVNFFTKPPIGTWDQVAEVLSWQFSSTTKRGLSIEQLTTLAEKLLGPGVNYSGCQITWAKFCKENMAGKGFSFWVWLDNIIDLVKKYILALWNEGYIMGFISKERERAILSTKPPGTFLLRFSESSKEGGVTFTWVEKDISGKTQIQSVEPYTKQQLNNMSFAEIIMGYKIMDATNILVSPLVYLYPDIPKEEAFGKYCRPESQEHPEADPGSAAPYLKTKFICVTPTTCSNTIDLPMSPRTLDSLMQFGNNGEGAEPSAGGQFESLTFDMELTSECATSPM

Kd [1]: 4.32 nM
koff [1]: 0.000386 s⁻¹
kon [1]: 89300 M⁻¹ s⁻¹
Kd [2]: 29.2 nM
koff [2]: 0.00048 s⁻¹
kon [2]: 16500 M⁻¹ s⁻¹
Kd [3]: 67.5 nM
koff [3]: 0.000801 s⁻¹
kon [3]: 11900 M⁻¹ s⁻¹
Molecule: anti-KRAS (negative control) (VHH)

binding result [4]: binds
B1: STAT3 VHH13 (SEQ ID NO:3) produced and isolated from mammalian cells (VHH)
VHH: HVQLVESGGGSVQAGGSLRLSCAASGANGGRSCMGWFRQVPGKEREGVSGISTGGLITYYADSVKGRFTISQDNTKNTLYLQMNSLKPEDTAMYYCATSRFDCYRGSWFNRYMYNSWGQGTQVTVSS

Reference: patent US20160115226A1 (SINGH MOLECULAR MEDICINE, published 2016)
